Consider one substance from article PMC10269738.

Test [1] has as its target cell-surface annexin A2 of Vero cells (African green monkey (endogenous in Vero)).
Test [2] concerns the target adhesion G protein-coupled receptor Latrophilin-2 of Vero cells (African green monkey (endogenous in Vero)).

For “avian reovirus (ARV) σC protein, strain S1133 (natural protein)”, the virus titer in Vero cells treated with anti-AnxA2 monoclonal antibody, against untreated samples (log units lower) in test [1] came out at 2.5. The virus titer in Vero cells treated with anti-ADGRL2 monoclonal antibody, against untreated samples (log units lower) in test [2] was 3.
